In patent publication US20040086966A1 (EUROSCREEN S A, published 2004):
No end group written: not given here.

T1: human ChemerinR (human, UniProt Q99788 3-373)
T1 sequence: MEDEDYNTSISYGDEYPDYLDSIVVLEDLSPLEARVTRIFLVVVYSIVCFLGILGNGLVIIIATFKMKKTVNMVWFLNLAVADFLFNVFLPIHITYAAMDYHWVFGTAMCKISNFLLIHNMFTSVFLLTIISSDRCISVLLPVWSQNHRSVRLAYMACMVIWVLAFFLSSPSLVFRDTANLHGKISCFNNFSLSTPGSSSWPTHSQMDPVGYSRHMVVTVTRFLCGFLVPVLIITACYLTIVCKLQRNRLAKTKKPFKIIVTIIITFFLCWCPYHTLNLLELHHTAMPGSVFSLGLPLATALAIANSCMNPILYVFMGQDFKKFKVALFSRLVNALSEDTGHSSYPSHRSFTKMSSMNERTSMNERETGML

B1: human Prochemerin (recombinant, unprocessed) (ligand)
chain: ELTEAQRRGLQVALEEFHKHPPVQWAFQETSVESAVDTPFPAGIFVRLEFKLQQTSCRKRDWKKPECKVRPNGRKRKCLACIKLGSEDKVLGRLVHCPIETQVLREAEEHQETQCLRVQRAGEDPHSFYFPGQFAFSKALPRS
B2: YHSFFFPGQFAFS peptide (unlabeled) (peptide)
peptide: YHSFFFPGQFAFS
notes: also called unlabeled peptide; unlabel peptide
B3: Human Chemerin-13 (peptide)
peptide: PHSFYFPGQFAFS
modifications: not fully specified
B4: Human [Ala-2]Chemerin-9 (peptide)
peptide: YAPGQFAFS
B5: Human Chemerin-8 (peptide)
peptide: FPGQFAFS
B6: Human Chemerin-12 (peptide)
peptide: HSFYFPGQFAFS
B7: Human Chemerin-7 (peptide)
peptide: PGQFAFS
B8: Human [Lys20]Chemerin-19 (peptide)
peptide: QRAGEDPHSFYFPGQFAFSK
B9: Human [Ala-8]Chemerin-9 (peptide)
peptide: YFPGQFAAS
B10: Human [delta-Ser19]Chemerin-19 (peptide)
peptide: QRAGEDPHSFYFPGQFAF
B11: Human prochemerin-25 (peptide)
peptide: QRAGEDPHSFYFPGQFAFSKALPRS
B12: Human [delta-Phe18Ser19]Chemerin-19 (peptide)
peptide: QRAGEDPHSFYFPGQFA
B13: Human [Ala-6]Chemerin-9 (peptide)
peptide: YFPGQAAFS
B14: Human [Ala-1]Chemerin-9 (peptide)
peptide: AFPGQFAFS
B15: Human [delta-Ala17Phe18Ser19]Chemerin-19 (peptide)
peptide: QRAGEDPHSFYFPGQF
B16: Human Chemerin-10 (peptide)
peptide: FYFPGQFAFS
B17: Human Chemerin-19 (peptide)
peptide: QRAGEDPHSFYFPGQFAFS

biological target: T1, human ChemerinR; experiment: cell-based or functional assay

EC50, biological activity on CHO-K1 cells expressing human ChemerinR (aequorin assay)	EC50, aequorin-based assay	Binder
393 nM		B1
	28 nM	B2

biological target: T1, human ChemerinR; experiment: cell-based or functional assay; remark: another data set of the same source

Mean EC50, intracellular calcium release (aequorin assay)	Binder
14 nM	B3
155 nM	B4
2000 nM	B5
12.2 nM	B6
220000 nM	B7
170000 nM	B8
38000 nM	B9
97 nM	B10
160000 nM	B11
220000 nM	B12
5000 nM	B13
496 nM	B14
130000 nM	B15
8.2 nM	B16
16.7 nM	B17

biological target: T1, human ChemerinR; experiment: competition binding on ChemerinR-expressing CHO-K1 cells, tracer 125I-…, one-site model, 3 experiments
Protocol: (§1) ChemerinR expressing CHO-K1 cells were collected from plates with PBS supplemented with 5 mM EDTA, gently pelleted for 2 min at 1000×g, and resuspended in binding buffer (50 mM HEPES, pH 7.4, 1 mM CaCl₂, 5 mM MgCl₂, 0.5% BSA). […] Filters were counted in a […]-scintillation counter. Binding parameters were determined with the PRISM software (Graphpad Software) using nonlinear regression applied to a one-site competition model.

Ki	pKi	Binder
12.1 nM	7.95	B2

biological target: T1, human ChemerinR; experiment: competition binding on ChemerinR-expressing CHO-K1 cells; tracer (competed ligand) 125I-…
Protocol: as §1

IC50 (read off the curve)	Binder
~20 nM	B2
